Here are results for one protein from paper PMC11203732, “Structural Evaluation of a Nitroreductase Engineered for Improved Activation of the 5-Nitroimidazole PET Probe SN33623” (International Journal of Molecular Sciences, 2024).

This series deals with the molecule itself. Nature of the series: crystal structure; hanging-drop vapor diffusion at 18 °C; 7 mg/mL protein in 40 mM Tris-HCl pH 7.0, 200 mM NaCl; precipitant 0.2 M sodium chloride, 0.1 M sodium acetate pH 4.0, 33% PEG 8000; four molecules in the asymmetric unit; FMN bound.

B1: E. coli NfsB F70A/F108Y (enzyme)
chain: MDIISVALKRHSTKAFDASKKLTPEQAEQIKTLLQYSPSSTNSQPWHFIVASTEEGKARVAKSAAGNYVANERKMLDASHVVVFCAKTAMDDVWLKLVVDQEDADGRYATPEAKAANDKGRKFFADMHRKDLHDDAEWMAKQVYLNVGNFLLGVAALGLDAVPIEGFDAAILDAEFGLKEKGYTSLVVVPVGHHSVEDFNATLPKSRLPQNITLTEV
notes: Nitroreductase NfsB of Escherichia coli, 24 kDa subunit, with the substitutions F70A and F108Y; synthetic gene (Twist Bioscience) cloned into pET28a+; Homodimer with one FMN in each of two active sites at the dimer interface; also called mutNfsB; double-mutant F70A/F108Y
As to B1, the “stoichiometry N” value came out at 2.

Usually stoichiometry N stands for the number of molecules, sites or subunits per partner or assembly.
